For data set [1], the target named is T1, GqqA (Komagataeibacter europaeus, UniProt A0A0M0ELU2).
T1 construct: E. coli BL21(DE3); homodimer of 61 kDa; primers encode N-terminus MNGERIIA and C-terminus LRRKP; PDT domain 1-180, ACT domain 194-281
The data set can be described thus: X-ray crystal structure, […] Å. It is filed as binding. Particulars: ACT regulatory domain at dimer interface, one per monomer; co-purified, not added.

Data set [2] addresses T2, SeGqqA (Komagataeibacter europaeus, UniProt A0A0M0ELU2, DEL86-170).
T2 construct: gene gqqA; selenomethionine-substituted GqqA; residues 86-170 lost by proteolysis during crystallization (not engineered; termini V85 and His171); made as full length with C-terminal TEV site and His6 tag in E. coli BL21(DE3)
T2 sequence (A0A0M0ELU2 with tags, fused parts or gaps DEL86-170): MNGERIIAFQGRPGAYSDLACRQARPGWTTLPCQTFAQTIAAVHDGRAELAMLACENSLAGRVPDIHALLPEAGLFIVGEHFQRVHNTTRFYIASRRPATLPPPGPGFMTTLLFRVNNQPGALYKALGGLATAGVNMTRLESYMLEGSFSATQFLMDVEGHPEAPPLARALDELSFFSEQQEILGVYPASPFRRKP
The data set can be described thus: X-ray crystal structure (SAD), […] Å. It is filed as binding. Particulars: ACT regulatory domain; not added.

Substrate in data set [3]: CCCC(=O)CC(=O)N[C@H]1CCOC1=O
The data set can be described thus: purified protein. It is filed as biochemical, Komagataeibacter europaeus. To be noted: 5 mM EPPS pH 8.0, 0.5 mM Phenol Red, 30 °C, substrate 0-65 mM.

Substrate in data set [4]: CCCCCC(=O)CC(=O)N[C@H]1CCOC1=O
The data set can be described thus: purified protein. The format is biochemical, Komagataeibacter europaeus. To be noted: 5 mM EPPS pH 8.0, 0.5 mM Phenol Red, 30 °C, substrate 0-65 mM.

Substrate in data set [5]: CCCCCCCC(=O)CC(=O)N[C@H]1CCOC1=O
The data set can be described thus: purified protein. It is filed as biochemical, Komagataeibacter europaeus. Particulars: 5 mM EPPS pH 8.0, 0.5 mM Phenol Red, 30 °C, substrate 0-65 mM.

Substrate in data set [6]: CCCCCCCCCC(=O)CC(=O)N[C@H]1CCOC1=O
The experiment in a line: purified protein. It is filed as biochemical, Komagataeibacter europaeus. To be noted: 5 mM EPPS pH 8.0, 0.5 mM Phenol Red, 30 °C, substrate 0-65 mM.

Data set [7] deals with the molecule itself. The data set can be described thus: dynamic light scattering; GqqA 3.6 mg/ml in 0.1 M K2HPO4 pH 5.0, 150 mM NaCl, 20 °C; hydrodynamic radius 3.9 ± 0.1 nm; long-term measurement at room temperature for 4 days.

With `N[C@@H](Cc1ccccc1)C(=O)O` [L-Phe], in data set [1], the “X-ray crystal structure, 2.5 Å” value was “within the dimer interface we identified two L-Phe molecules”. For the same molecule, the “X-ray crystal structure (SAD), 1.7 Å” value in data set [2] is reported as “L-Phe is also bound in the truncated SeGqqA”.

B1: GqqA (enzyme, Komagataeibacter europaeus CECT 8546)
chain: MNGERIIAFQGRPGAYSDLACRQARPGWTTLPCQTFAQTIAAVHDGRAELAMLACENSLAGRVPDIHALLPEAGLFIVGEHFQRVEHCLLGIPGSTLADARRIHTHPVAMAQVRGIITELGLDPVVEFDTAGAAEMVREWGRKEDVAVASALAAELNGLEILRRNVEDATHNTTRFYIASRRPATLPPPGPGFMTTLLFRVNNQPGALYKALGGLATAGVNMTRLESYMLEGSFSATQFLMDVEGHPEAPPLARALDELSFFSEQQEILGVYPASPFRRKP
notes: GqqA, quorum quenching N-acyl-homoserine lactone acylase / prephenate dehydratase of Komagataeibacter europaeus CECT 8546; 281 amino acid residues, about 30.5 kDa; PDT domain 1-180, ACT domain 194-281; the gene was integrated in pET21a; no removal of the tag by TEV is described; also called native GqqA; GqqA wt; source: E. coli BL21 (DE3), purified (Ni-NTA, size-exclusion chromatography)
Regarding B1, the Km (commonly the substrate concentration at which the rate is half of its maximum) in data set [3] was found to be 6.89 ± 0.15 mM; in data set [4] it was 4.87 ± 0.12 mM; in data set [5], 2.36 ± 0.35 mM; in data set [6], 16.7 ± 0.5 mM. In addition, the Vmax (commonly the rate approached at saturating substrate) amounted to 109 µmol/min/mg in data set [3], 117 µmol/min/mg in data set [4], 152 µmol/min/mg in data set [5] and 13.8 µmol/min/mg in data set [6]. In addition, the Vmax/Km came out at 15900 µL/min/mg in data set [3], 24100 µL/min/mg in data set [4], 64500 µL/min/mg in data set [5] and 820 µL/min/mg in data set [6]. Besides, in data set [7], the stoichiometry N (in general, the number of molecules, sites or subunits per partner or assembly) is 2.

For the origin of these results see article PMC8192741, “The Komagataeibacter europaeus GqqA is the prototype of a novel bifunctional N-Acyl-homoserine lactone acylase with prephenate dehydratase activity” (Scientific Reports, 2021).
